Test results: patent US20160264666A1 (INSERM INSTITUT NATIONAL DE LA SANTE ET DE LA RECHERCHE …, published 2016)

T1: ICOS (Inductible T cell costimulator) (UniProt Q9Y6W8 21-199, limits assumed)
T1 construct: whole, on cells; also called ICOS on JICOS.1 cells
T1 sequence (looked up): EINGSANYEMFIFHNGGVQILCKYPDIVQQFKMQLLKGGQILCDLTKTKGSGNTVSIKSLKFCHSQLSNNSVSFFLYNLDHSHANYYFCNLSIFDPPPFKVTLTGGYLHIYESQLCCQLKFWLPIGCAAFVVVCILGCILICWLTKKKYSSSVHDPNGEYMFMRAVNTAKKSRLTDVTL


Assays:
[1] = molecular target: T1, ICOS (Inductible T cell costimulator); assay: flow cytometry on JICOS.1 cells (ICOS transfectants), mAb titration revealed with GAM-PE; printed as [ED] 50
Procedure: (§1) The inventors developed 5 anti-ICOS Abs. Their isotype was assayed by ELISA. For obtaining an indirect analysis of their affinity for their receptor, mAbs were tested using stable transfectants expressing ICOS. JICOS.1 cells were in the presence of an increasing range of anti-ICOS mAbs labeled with a probe coupled to a fluorochrome (PE-GAM: Goat anti mouse-PE) and the analysis was made thanks to cytometry flow.

[2] = molecular target: T1, ICOS (Inductible T cell costimulator); assay: flow cytometry on JICOS.1 cells, inhibition of ICOS L-Fc binding to ICOS, revealed with GAH-PE; printed as [ID] 50
From the text: (§2) They used a gradient of concentration of anti-ICOS mAbs and theyr reveled the fixation to ICOS L Fc thanks to a probe coupled to a fluorochrom (GAH-PE: Goat anti-human-PE). The analysis was made by flow cytometry.

[3] = molecular target: T1, ICOS (Inductible T cell costimulator); assay: flow cytometry on JICOS.1 cells, mAb titration revealed with GAM-PE; printed as ED 50
Procedure: as §1

[4] = molecular target: T1, ICOS (Inductible T cell costimulator); assay: flow cytometry on JICOS.1 cells, inhibition of ICOS L-Fc binding to ICOS; printed as ID 50
From the text: as §2

| Binder | EC50 [1] [µg/mL] | IC50 [2] [µg/mL] | EC50 [3] [µg/mL] | IC50 [4] [µg/mL] |
| --- | --- | --- | --- | --- |
| ICOS 88-2 (antibody, V domains shown, Mouse hybridoma monoclonal antibody; isotype printed as IgG1-L; Agonist of ICOS; also called anti-ICOS mAb 88-2) VH: QVQLQQPGAELVRPGASVKLSCKASGYSFTSYWINWVKQRPGQGLEWIGNIYPSDSYTNYNQMFKDKATLTVDKSSNTAYMQLTSPTSEDSAVYYCTRWNLSYYFDNNYYLDYWGQGTTLTVSS VL: DIVMTQAAPSVPVTPGESVSISCRSSKSLLHSNGNTYLYWFLQRPGQSPQLLIYRMSNLASGVPDRFSGSGSGTAFTLRISRVEAEDVGVYYCMQHLEYPWTFGGGTKLEIK | 1.6 | 17 | – | – |
| ICOS 314-8 (antibody, V domains shown, Mouse hybridoma monoclonal antibody; isotype printed as IgG1-K; Antagonist of ICOS) VH: QVQLQQPGTELMKPGASVKLSCKASGYTFTTYWMHWVKQRPGQGLEWIGEIDPSDSYVNYNQNFKGKATLTVDKSSSTAYIQLSSLTSEDSAVYFCARSPDYYGTSLAWFDYWGQGTLVTVST VL: DIVMTQAAPSVPVTPGESVSISCRSSKSPLHSNGNIYLYWFLQRPGQSPQLLIYRMSNLASGVPDRFSGSGSGTTFTLKISRVEAEDVGVYYCMQHLEYPYTFGGGTKLEIK | 0.06 | 0.29 | < 0.5 | < 1000 |
